Measured values taken from the supplement of paper PMC10724198.
± gives the standard deviation of the averaged measurements.

system: Saccharomyces cerevisiae; experiment: protein stability index of tFT-peptide fusion (C-terminal peptide) (PSI (0-1 scale)); higher = more stable (slower turnover); details: genetic background: cdc34-1; temperature: 37 C
Experimental: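 MPS profiling in S. cerevisiae of the tFT-X12 degron library: putative degron peptides plus stable controls, 12 aa, fused to the C-terminus of a sfGFP-mCherry timer. Cells are FACS-sorted into 8 mCherry/sfGFP bins and deep-sequenced. PSI runs from 0 (unstable) to 1 (stable). Backgrounds are wild type, das1Δ and doa10Δ at 30 °C, and wild type, das1Δ, cdc34-1 and cdc53-1 at 37 °C; 2-3 technical replicates each.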
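Also: PSI is a weighted mean of sequencing reads over stability bins, variants kept only with over 10 reads, mCherry proximal and sfGFP distal, peptide attached via GGGS linker.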

Sequence | protein stability index
LAGSSSIVVVFG | 0.445 ± 0.00068
LAGVVWVVWCVG | 0.17 ± 0.013
LALTRAAITHFF | 0.649 ± 0.026
LASLSRPFRAKF | 0.9674 ± 0.0085
LCFLVLLSLLLL | 0.558 ± 0.047
LCHILAIIRRGA | 0.691 ± 0.019
LCLRCQCIGTLS | 0.54 ± 0.017
LCSLSIFVLFSC | 0.192 ± 0.015
LCSVVIFCLVWG | 0.117 ± 0.0048
LCVWRRAIVWVG | 0.363 ± 0.038
LFDYEAGEVMGG | 0.729 ± 0.042
LFFFLVWSLSVF | 0.0262 ± 0.0035
LFFFVCYLATVK | 0.198 ± 0.0088
LFGFYFVRCLVW | 0.113 ± 0.0026
LFHFPSWIFCLL | 0.562 ± 0.02
LFIRSFLFFSHF | 0.353 ± 0.0079
LFLTSFRFLRLF | 0.337 ± 0.016
LFPLLCLLLPSL | 0.614 ± 0.091
LFTVCMIIQMVH | 0.0516 ± 0.003
LFVGLVSFRIGA | 0.563 ± 0.039
LGCRFCFVGVVG | 0.589 ± 0.011
LGPLGWLVLLLV | 0.415 ± 0.012
LGWFVDFVFVVW | 0.289 ± 0.0096
LHASCVYTILLV | 0.427 ± 0.035
LIARYTFLFCLC | 0.553 ± 0.042
LLCGVLFFFWVV | 0.38 ± 0.018

Sequence | protein stability index
LLFSVLLLGVGF | 0.425 ± 0.033
LLGSRFVLIRSL | 0.488 ± 0.028
LLLRSSRLRVLS | 0.543 ± 0.064
LLLRWWLYSCCP | 0.411 ± 0.027
LLPFSLLDLLLC | 0.658 ± 0.028
LLQCRTGLASGR | 0.685 ± 0.032
LLSGLVFVFVLG | 0.293 ± 0.01
LLSILSSLPLSR | 0.579 ± 0.04
LLVFSLLRPFLF | 0.615 ± 0.072
LLVLRQYFFFFV | 0.462 ± 0.026
LPCPPSPASLPR | 0.676 ± 0.0092
LPHIFFCLFSLL | 0.582 ± 0.045
LPPFRFSLPFRR | 0.692 ± 0.044
LPWLLLISFSYR | 0.149 ± 0.017
LQSYIFSVRGIS | 0.707 ± 0.02
LRMMLLVTIILE | 0.0571 ± 0.0011
LRVGVRSWGGKW | 0.4323 ± 0.0013
LSFYLRAVRASL | 0.777 ± 0.092
LSLFPFLPSPCP | 0.736 ± 0.03
LSRSAGVGVWVG | 0.65 ± 0.01
LSTFFIFLRILR | 0.289 ± 0.028
LVFLYFHFCCGF | 0.4768 ± 0.0043
LVFPPVPSLVLC | 0.261 ± 0.018
LVFPRWACSLVF | 0.344 ± 0.0079
LVFRVSLVEVVL | 0.2142 ± 0.0015
LVGLLASWLRFN | 0.579 ± 0.052

Sequence | protein stability index
LVLALTPFLHSF | 0.639 ± 0.01
LVLSVWFFNCTS | 0.485 ± 0.0093
LVRFYGPLPPFP | 0.688 ± 0.047
LVRGGLTNLFLF | 0.664 ± 0.046
LWFFVVVVVRWV | 0.102 ± 0.014
LWRFFFVAFVGI | 0.446 ± 0.0079
MALAVRVVFCGA | 0.3299 ± 0.0012
MALAVRVVICGA | 0.0365 ± 0.01
MLCVFVFIWYFV | 0.235 ± 0.03
MLFALLTIVFLG | 0.241 ± 0.031
MLTYVVRSLVGY | 0.484 ± 0.0066
MWFVGLCLHFFM | 0.472 ± 0.029
NAGSHHAAVKLG | 0.664 ± 0.064
NCMGLLMPLLIT | 0.437 ± 0.024
NFFLLFFFFLSF | 0.455 ± 0.037
PAMPTEPKSSSG | 0.667 ± 0.019
PFFSSLKYRRDH | 0.598 ± 0.07
PFFVFSFLFLLH | 0.114 ± 0.01
PHRLSRFILRLL | 0.562 ± 0.027
PLCLFPPLLVFL | 0.492 ± 0.044
PLFLLTFAITLV | 0.0736 ± 0.0086
PLLLLLPSLLLV | 0.363 ± 0.027
PLRRPSWVVLSS | 0.671 ± 0.024
PPIPTPSPIPLH | 0.66 ± 0.018
PPPHPPPATFLS | 0.661 ± 0.029
PPPPPPPSSSSL | 0.667 ± 0.041

same assay, conditions: genetic background: cdc53-1; temperature: 37 C

Sequence | protein stability index
LAGSSSIVVVFG | 0.469 ± 0.04
LAGVVWVVWCVG | 0.21 ± 0.0091
LALTRAAITHFF | 0.749 ± 0.013
LASLSRPFRAKF | 0.949 ± 0.026
LCFLVLLSLLLL | 0.581 ± 0.018
LCHILAIIRRGA | 0.737 ± 0.032
LCLRCQCIGTLS | 0.587 ± 0.014
LCSLSIFVLFSC | 0.309 ± 0.027
LCSVVIFCLVWG | 0.263 ± 0.041
LCVWRRAIVWVG | 0.4573 ± 0.0015
LFDYEAGEVMGG | 0.747 ± 0.03
LFFFLVWSLSVF | 0.0512 ± 0.0066
LFFFVCYLATVK | 0.347 ± 0.11
LFGFYFVRCLVW | 0.168 ± 0.022
LFHFPSWIFCLL | 0.612 ± 0.029
LFIRSFLFFSHF | 0.3482 ± 0.00057
LFLTSFRFLRLF | 0.4813 ± 0.0027
LFPLLCLLLPSL | 0.664 ± 0.033
LFTVCMIIQMVH | 0.185 ± 0.0029
LFVGLVSFRIGA | 0.573 ± 0.014
LGCRFCFVGVVG | 0.632 ± 0.052
LGPLGWLVLLLV | 0.425 ± 0.014
LGWFVDFVFVVW | 0.426 ± 0.037
LHASCVYTILLV | 0.4584 ± 0.0012
LIARYTFLFCLC | 0.611 ± 0.015
LLCGVLFFFWVV | 0.496 ± 0.011

Sequence | protein stability index
LLFSVLLLGVGF | 0.4723 ± 0.001
LLGSRFVLIRSL | 0.571 ± 0.044
LLLRSSRLRVLS | 0.619 ± 0.03
LLLRWWLYSCCP | 0.495 ± 0.012
LLPFSLLDLLLC | 0.707 ± 0.021
LLQCRTGLASGR | 0.732 ± 0.043
LLSGLVFVFVLG | 0.405 ± 0.026
LLSILSSLPLSR | 0.6106 ± 0.0022
LLVFSLLRPFLF | 0.643 ± 0.018
LLVLRQYFFFFV | 0.531 ± 0.013
LPCPPSPASLPR | 0.7154 ± 0.0027
LPHIFFCLFSLL | 0.611 ± 0.047
LPPFRFSLPFRR | 0.7531 ± 0.0018
LPWLLLISFSYR | 0.25 ± 0.037
LQSYIFSVRGIS | 0.697 ± 0.018
LRMMLLVTIILE | 0.115 ± 0.0084
LRVGVRSWGGKW | 0.5125 ± 0.0013
LSFYLRAVRASL | 0.782 ± 0.009
LSLFPFLPSPCP | 0.777 ± 0.0099
LSRSAGVGVWVG | 0.72 ± 0.019
LSTFFIFLRILR | 0.218 ± 0.0087
LVFLYFHFCCGF | 0.4909 ± 0.0032
LVFPPVPSLVLC | 0.278 ± 0.0066
LVFPRWACSLVF | 0.3661 ± 0.0021
LVFRVSLVEVVL | 0.299 ± 0.0071
LVGLLASWLRFN | 0.6987 ± 0.001

Sequence | protein stability index
LVLALTPFLHSF | 0.701 ± 0.017
LVLSVWFFNCTS | 0.569 ± 0.021
LVRFYGPLPPFP | 0.7613 ± 0.0063
LVRGGLTNLFLF | 0.78 ± 0.019
LWFFVVVVVRWV | 0.135 ± 0.0081
LWRFFFVAFVGI | 0.509 ± 0.024
MALAVRVVFCGA | 0.338 ± 0.0067
MALAVRVVICGA | 0.11 ± 0.097
MLCVFVFIWYFV | 0.279 ± 0.013
MLFALLTIVFLG | 0.3263 ± 0.0015
MLTYVVRSLVGY | 0.4954 ± 0.0015
MWFVGLCLHFFM | 0.5504 ± 0.0014
NAGSHHAAVKLG | 0.74 ± 0.027
NCMGLLMPLLIT | 0.391 ± 0.0086
NFFLLFFFFLSF | 0.4876 ± 0.0038
PAMPTEPKSSSG | 0.7403 ± 0.0028
PFFSSLKYRRDH | 0.751 ± 0.014
PFFVFSFLFLLH | 0.183 ± 0.023
PHRLSRFILRLL | 0.683 ± 0.014
PLCLFPPLLVFL | 0.526 ± 0.034
PLFLLTFAITLV | 0.194 ± 0.06
PLLLLLPSLLLV | 0.413 ± 0.011
PLRRPSWVVLSS | 0.7218 ± 0.0037
PPIPTPSPIPLH | 0.726 ± 0.0011
PPPHPPPATFLS | 0.692 ± 0.0097
PPPPPPPSSSSL | 0.735 ± 0.027
